# Test results: US20240066131A1 (Protagonist Therapeutics, Inc., priority 2020, published 2024)
# Starred links: 1 amine or outer side, 2 acyl side, 3 side chain; linkers in the order of their positions; H or OH if unused. Non-standard residues stand in square brackets, D forms with d. Groups on a side chain read outwards from the residue. *: point of attachment. ButanoicP = (R)-4-(pyrrolidin-2-yl)butanoic acid, O=C(CCC[C@@H]1CCCN1[*:1])[*:2]; C18 diacid = O=C(O)CCCCCCCCCCCCCCCCC(=O)*; Dip = N[C@H](C(=O)O)C(c1ccccc1)c1ccccc1; Palmitoyl = CCCCCCCCCCCCCCCC(=O)*; NMeF = CN[C@@H](Cc1ccccc1)C(=O)O; β3hF = N[C@H](CC(=O)O)Cc1ccccc1; Isovaleryl = CC(C)CC(=O)*; (Me)Leu = methyl-leucine; AEEA = NCCOCCOCC(=O)O; Ahx = NCCCCCC(=O)O
# T1: human ferroportin (SLC40A1) fused in frame with GFP, stably expressed in HEK293 cells (human, UniProt Q9NP59 1-571)
# T1 sequence (looked up): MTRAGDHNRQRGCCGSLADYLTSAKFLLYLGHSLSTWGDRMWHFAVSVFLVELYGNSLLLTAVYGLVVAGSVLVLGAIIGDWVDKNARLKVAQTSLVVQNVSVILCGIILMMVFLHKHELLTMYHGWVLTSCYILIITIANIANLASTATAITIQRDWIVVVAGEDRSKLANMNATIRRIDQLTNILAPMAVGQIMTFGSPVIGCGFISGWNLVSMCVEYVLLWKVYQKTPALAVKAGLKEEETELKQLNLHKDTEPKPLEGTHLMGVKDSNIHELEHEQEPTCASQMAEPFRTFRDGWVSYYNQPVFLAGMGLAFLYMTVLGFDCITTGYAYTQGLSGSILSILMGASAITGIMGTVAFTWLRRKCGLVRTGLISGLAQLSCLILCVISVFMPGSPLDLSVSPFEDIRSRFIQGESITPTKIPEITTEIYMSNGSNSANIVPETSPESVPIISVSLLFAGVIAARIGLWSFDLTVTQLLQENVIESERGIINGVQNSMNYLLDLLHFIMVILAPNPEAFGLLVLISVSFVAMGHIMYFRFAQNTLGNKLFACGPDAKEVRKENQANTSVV
# Target: T1, human ferroportin (SLC40A1) fused in …
# Test: cell-based or functional assay
row,Binder,FPN EC50
1,Isovaleryl-ETH[Dip][ButanoicP][β3hF]K([Ahx-Palmitoyl])-NH2 (SMILES CCCCCCCCCCCCCCCC(=O)NCCCCCC(=O)NCCCC[C@H](NC(=O)C[C@H](Cc1ccccc1)NC(=O)CCC[C@@H]1CCCN1C(=O)[C@@H](NC(=O)[C@H](Cc1c[nH]cn1)NC(=O)[C@@H](NC(=O)[C@H](CCC(=O)O)NC(=O)CC(C)C)[C@@H](C)O)C(c1ccccc1)c1ccccc1)C(N)=O) [Isovaleric Acid-E-T-H-[Dpa]-[ButanoicP]-[bhPhe]-[Lys(Ahx_Palm)]-NH2],71.2 nM
2,Isovaleryl-LTH[Dip]PAIK([AEEA-AEEA-Ahx-C18 diacid])[β3hF][dK]-NH2 [Isovaleric Acid-L-T-H-[Dpa]-P-A-I-[Lys(1PEG2_1PEG2_Ahx_C18_Diacid)]-[bhPhe]-[(D)Lys]-NH2],65.7 nM
3,Isovaleryl-RTH[Dip]PAIK([AEEA-AEEA-Ahx-C18 diacid])[β3hF][dK]-NH2 (SMILES CC[C@H](C)[C@H](NC(=O)[C@H](C)NC(=O)[C@@H]1CCCN1C(=O)[C@@H](NC(=O)[C@H](Cc1c[nH]cn1)NC(=O)[C@@H](NC(=O)[C@H](CCCNC(=N)N)NC(=O)CC(C)C)[C@@H](C)O)C(c1ccccc1)c1ccccc1)C(=O)N[C@@H](CCCCNC(=O)COCCOCCNC(=O)COCCOCCNC(=O)CCCCCNC(=O)CCCCCCCCCCCCCCCCC(=O)O)C(=O)N[C@H](CC(=O)N[C@H](CCCCN)C(N)=O)Cc1ccccc1) [Isovaleric Acid-R-T-H-[Dpa]-P-A-I-[Lys(1PEG2_1PEG2_Ahx_C18_Diacid)]-[bhPhe]-[(D)Lys]-NH2],48.5 nM
4,Isovaleryl-[dR]TH[Dip]PAIK([AEEA-AEEA-Ahx-C18 diacid])[β3hF][dK]-NH2 (SMILES CC[C@H](C)[C@H](NC(=O)[C@H](C)NC(=O)[C@@H]1CCCN1C(=O)[C@@H](NC(=O)[C@H](Cc1c[nH]cn1)NC(=O)[C@@H](NC(=O)[C@@H](CCCNC(=N)N)NC(=O)CC(C)C)[C@@H](C)O)C(c1ccccc1)c1ccccc1)C(=O)N[C@@H](CCCCNC(=O)COCCOCCNC(=O)COCCOCCNC(=O)CCCCCNC(=O)CCCCCCCCCCCCCCCCC(=O)O)C(=O)N[C@H](CC(=O)N[C@H](CCCCN)C(N)=O)Cc1ccccc1) [Isovaleric Acid-[(D)Arg]-T-H-[Dpa]-P-A-I-[Lys(1PEG2_1PEG2_Ahx_C18_Diacid)]-[bhPhe]-[(D)Lys]-NH2],732 nM
5,Isovaleryl-ETH[Dip]PLIK([Ahx-Palmitoyl])[NMeF]-NH2 [Isovaleric Acid-E-T-H-[Dpa]-P-L-I-[Lys(Ahx_Palm)]-[(Me)Phe]-NH2],27.2 nM
6,Isovaleryl-ETH[Dip]PAIK([Ahx-Palmitoyl])[β3hF]-NH2 (SMILES CCCCCCCCCCCCCCCC(=O)NCCCCCC(=O)NCCCC[C@H](NC(=O)[C@@H](NC(=O)[C@H](C)NC(=O)[C@@H]1CCCN1C(=O)[C@@H](NC(=O)[C@H](Cc1c[nH]cn1)NC(=O)[C@@H](NC(=O)[C@H](CCC(=O)O)NC(=O)CC(C)C)[C@@H](C)O)C(c1ccccc1)c1ccccc1)[C@@H](C)CC)C(=O)N[C@H](CC(N)=O)Cc1ccccc1) [Isovaleric Acid-E-T-H-[Dpa]-P-A-I-[Lys(Ahx_Palm)]-[bhPhe]-NH2],31.9 nM
7,Isovaleryl-LTH[Dip]PAIK([Ahx-Palmitoyl])[NMeF]-NH2 (SMILES CCCCCCCCCCCCCCCC(=O)NCCCCCC(=O)NCCCC[C@H](NC(=O)[C@@H](NC(=O)[C@H](C)NC(=O)[C@@H]1CCCN1C(=O)[C@@H](NC(=O)[C@H](Cc1c[nH]cn1)NC(=O)[C@@H](NC(=O)[C@H](CC(C)C)NC(=O)CC(C)C)[C@@H](C)O)C(c1ccccc1)c1ccccc1)[C@@H](C)CC)C(=O)N(C)[C@@H](Cc1ccccc1)C(N)=O) [Isovaleric Acid-L-T-H-[Dpa]-P-A-I-[Lys(Ahx_Palm)]-[(Me)Phe]-NH2],1750 nM
8,Isovaleryl-LTH[Dip]PLIK([Ahx-Palmitoyl])[NMeF]-NH2 (SMILES CCCCCCCCCCCCCCCC(=O)NCCCCCC(=O)NCCCC[C@H](NC(=O)[C@@H](NC(=O)[C@H](CC(C)C)NC(=O)[C@@H]1CCCN1C(=O)[C@@H](NC(=O)[C@H](Cc1c[nH]cn1)NC(=O)[C@@H](NC(=O)[C@H](CC(C)C)NC(=O)CC(C)C)[C@@H](C)O)C(c1ccccc1)c1ccccc1)[C@@H](C)CC)C(=O)N(C)[C@@H](Cc1ccccc1)C(N)=O) [Isovaleric Acid-L-T-H-[Dpa]-P-L-I-[Lys(Ahx_Palm)]-[(Me)Phe]-NH2],764 nM
9,Isovaleryl-LTH[Dip]P[(Me)Leu]IK([Ahx-Palmitoyl])[NMeF]-NH2 [Isovaleric Acid-L-T-H-[Dpa]-P-[(Me)Leu]-I-[Lys(Ahx_Palm)]-[(Me)Phe]-NH2],2290 nM
10,Isovaleryl-LTH[Dip]PAIK([Ahx-Palmitoyl])[(Me)Leu]-NH2 [Isovaleric Acid-L-T-H-[Dpa]-P-A-I-[Lys(Ahx_Palm)]-[(Me)Leu]-NH2],508 nM
11,Isovaleryl-LTH[Dip]PLIK([Ahx-Palmitoyl])[(Me)Leu]-NH2 [Isovaleric Acid-L-T-H-[Dpa]-P-L-I-[Lys(Ahx_Palm)]-[(Me)Leu]-NH2],287 nM
12,Isovaleryl-LTH[Dip]P[(Me)Leu]IK([Ahx-Palmitoyl])L-NH2 [Isovaleric Acid-L-T-H-[Dpa]-P-[(Me)Leu]-I-[Lys(Ahx_Palm)]-L-NH2],2760 nM
13,Isovaleryl-ETH[Dip]PAI[dK]K(Ac)-NH2 [Isovaleric Acid-E-T-H-[Dpa]-P-A-I-[(D)Lys]-[Lys(Ac)]-NH2],814 nM
14,Isovaleryl-ETH[Dip]PAIK(Ac)-NH2 (SMILES CC[C@H](C)[C@H](NC(=O)[C@H](C)NC(=O)[C@@H]1CCCN1C(=O)[C@@H](NC(=O)[C@H](Cc1c[nH]cn1)NC(=O)[C@@H](NC(=O)[C@H](CCC(=O)O)NC(=O)CC(C)C)[C@@H](C)O)C(c1ccccc1)c1ccccc1)C(=O)N[C@@H](CCCCNC(C)=O)C(N)=O) [Isovaleric Acid-E-T-H-[Dpa]-P-A-I-[Lys(Ac)]-NH2],1040 nM
15,Isovaleryl-ETH[Dip]PAK(Ac)-NH2 (SMILES CC(=O)NCCCC[C@H](NC(=O)[C@H](C)NC(=O)[C@@H]1CCCN1C(=O)[C@@H](NC(=O)[C@H](Cc1c[nH]cn1)NC(=O)[C@@H](NC(=O)[C@H](CCC(=O)O)NC(=O)CC(C)C)[C@@H](C)O)C(c1ccccc1)c1ccccc1)C(N)=O) [Isovaleric Acid-E-T-H-[Dpa]-P-A-[Lys(Ac)]-NH2],35700 nM
16,XETHXPX (N-term Isovaleric Acid; Dpa4; Lys(Ac)6; C-term NH2) [Isovaleric Acid-E-T-H-[Dpa]-P-[Lys(Ac)]-NH2],8410 nM
17,Isovaleryl-ETH[Dip]PLI[dK][β3hF]K([Ahx-Palmitoyl])[dK]L-NH2 (SMILES CCCCCCCCCCCCCCCC(=O)NCCCCCC(=O)NCCCC[C@H](NC(=O)C[C@H](Cc1ccccc1)NC(=O)[C@@H](CCCCN)NC(=O)[C@@H](NC(=O)[C@H](CC(C)C)NC(=O)[C@@H]1CCCN1C(=O)[C@@H](NC(=O)[C@H](Cc1c[nH]cn1)NC(=O)[C@@H](NC(=O)[C@H](CCC(=O)O)NC(=O)CC(C)C)[C@@H](C)O)C(c1ccccc1)c1ccccc1)[C@@H](C)CC)C(=O)N[C@H](CCCCN)C(=O)N[C@@H](CC(C)C)C(N)=O) [Isovaleric Acid-E-T-H-[Dpa]-P-L-I-[(D)Lys]-[bhPhe]-[Lys(Ahx_Palm)]-[(D)Lys]-L-NH2],4.5 nM
18,Isovaleryl-ETH[Dip]PAIK([AEEA-AEEA-Ahx-C18 diacid])-NH2 [Isovaleric Acid-E-T-H-[Dpa]-P-A-I-[Lys(1Peg2_1Peg2_Ahx_C18_Diacid)]-NH2],593 nM
19,Isovaleryl-ETH[Dip]PI[dK][β3hF]K([Ahx-Palmitoyl])-NH2 (SMILES CCCCCCCCCCCCCCCC(=O)NCCCCCC(=O)NCCCC[C@H](NC(=O)C[C@H](Cc1ccccc1)NC(=O)[C@@H](CCCCN)NC(=O)[C@@H](NC(=O)[C@@H]1CCCN1C(=O)[C@@H](NC(=O)[C@H](Cc1c[nH]cn1)NC(=O)[C@@H](NC(=O)[C@H](CCC(=O)O)NC(=O)CC(C)C)[C@@H](C)O)C(c1ccccc1)c1ccccc1)[C@@H](C)CC)C(N)=O) [Isovaleric Acid-E-T-H-[Dpa]-P-I-[(D)Lys]-[bhPhe]-[Lys(Ahx_Palm)]-NH2],22.9 nM
20,Isovaleryl-ETH[Dip]PSI[dK][β3hF]K([Ahx-Palmitoyl])-NH2 (SMILES CCCCCCCCCCCCCCCC(=O)NCCCCCC(=O)NCCCC[C@H](NC(=O)C[C@H](Cc1ccccc1)NC(=O)[C@@H](CCCCN)NC(=O)[C@@H](NC(=O)[C@H](CO)NC(=O)[C@@H]1CCCN1C(=O)[C@@H](NC(=O)[C@H](Cc1c[nH]cn1)NC(=O)[C@@H](NC(=O)[C@H](CCC(=O)O)NC(=O)CC(C)C)[C@@H](C)O)C(c1ccccc1)c1ccccc1)[C@@H](C)CC)C(N)=O) [Isovaleric Acid-E-T-H-[Dpa]-P-S-I-[(D)Lys]-[bhPhe]-[Lys(Ahx_Palm)]-NH2],46.3 nM
21,Isovaleryl-ETH[Dip]PFI[dK][β3hF]K([Ahx-Palmitoyl])-NH2 (SMILES CCCCCCCCCCCCCCCC(=O)NCCCCCC(=O)NCCCC[C@H](NC(=O)C[C@H](Cc1ccccc1)NC(=O)[C@@H](CCCCN)NC(=O)[C@@H](NC(=O)[C@H](Cc1ccccc1)NC(=O)[C@@H]1CCCN1C(=O)[C@@H](NC(=O)[C@H](Cc1c[nH]cn1)NC(=O)[C@@H](NC(=O)[C@H](CCC(=O)O)NC(=O)CC(C)C)[C@@H](C)O)C(c1ccccc1)c1ccccc1)[C@@H](C)CC)C(N)=O) [Isovaleric Acid-E-T-H-[Dpa]-P-F-I-[(D)Lys]-[bhPhe]-[Lys(Ahx_Palm)]-NH2],24.1 nM
22,Isovaleryl-ETH[Dip]PEI[dK][β3hF]K([Ahx-Palmitoyl])-NH2 (SMILES CCCCCCCCCCCCCCCC(=O)NCCCCCC(=O)NCCCC[C@H](NC(=O)C[C@H](Cc1ccccc1)NC(=O)[C@@H](CCCCN)NC(=O)[C@@H](NC(=O)[C@H](CCC(=O)O)NC(=O)[C@@H]1CCCN1C(=O)[C@@H](NC(=O)[C@H](Cc1c[nH]cn1)NC(=O)[C@@H](NC(=O)[C@H](CCC(=O)O)NC(=O)CC(C)C)[C@@H](C)O)C(c1ccccc1)c1ccccc1)[C@@H](C)CC)C(N)=O) [Isovaleric Acid-E-T-H-[Dpa]-P-E-I-[(D)Lys]-[bhPhe]-[Lys(Ahx_Palm)]-NH2],682 nM
